Source: patent US20260201064A1 (ISU ABXIS, published 2026)

biological target: T1, recombinant human ASM protein (human, UniProt P17405 47-630); assay: BLI (Octet), antibody on AHC sensor
T1 construct: Recombinant human ASM in solution; also called acid sphingomyelinase (ASM) protein
T1 sequence: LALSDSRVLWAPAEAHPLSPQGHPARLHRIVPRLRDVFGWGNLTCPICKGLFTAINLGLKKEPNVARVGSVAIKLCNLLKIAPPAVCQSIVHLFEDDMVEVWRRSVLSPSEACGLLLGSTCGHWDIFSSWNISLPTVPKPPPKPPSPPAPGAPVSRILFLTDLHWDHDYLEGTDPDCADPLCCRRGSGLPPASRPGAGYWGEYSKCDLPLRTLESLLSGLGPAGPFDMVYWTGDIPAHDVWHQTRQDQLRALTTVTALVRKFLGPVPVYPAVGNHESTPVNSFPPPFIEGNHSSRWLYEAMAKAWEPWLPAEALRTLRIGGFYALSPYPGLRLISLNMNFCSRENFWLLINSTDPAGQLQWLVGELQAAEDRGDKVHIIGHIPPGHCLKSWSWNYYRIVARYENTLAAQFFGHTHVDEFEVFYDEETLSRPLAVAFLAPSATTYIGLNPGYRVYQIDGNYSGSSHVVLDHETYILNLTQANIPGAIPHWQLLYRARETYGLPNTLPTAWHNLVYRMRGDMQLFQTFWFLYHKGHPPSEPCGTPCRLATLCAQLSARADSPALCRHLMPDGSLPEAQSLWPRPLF
Procedure: The binding affinity, to the ASM protein, of the produced antibodies specifically binding to the ASM protein and the interactive dynamics therebetween were measured using an Octet® QK384 system (Pall Life Sciences).
First, an antibody specifically binding to the ASM protein produced in Example 1 was captured using an anti-human IgG Fc capture (AHC) biosensor, and 1.25, 2.5, 5, 10, or 20 nM recombinant human ASM protein solution was added thereto. […] The association constant (Kₐ), dissociation constant (Kd), and equilibrium dissociation constant (KD) for each antibody were determined using Octet® analysis software (Pall Life® Sciences). As a result, the binding affinities, to the human ASM protein, of the antibodies with mutations in the heavy chain CDR regions of the antibody #9104 as depicted in Table 1 are shown in Table 5, and the binding affinities, to the human ASM protein, of the antibodies with mutations of the light chain CDR regions in the antibody #9104 as depicted in Table 2 are shown in Table 6.
After the small-scale expression in the ExpiCHO cell line as described above, the binding affinity to the human ASM protein was investigated as described in Experimental Example 1. Specifically, the antibody produced by a combination of #9104v-H33 heavy chain variable region and #9104v-L23 light chain variable region was not expressed and thus excluded in the analysis of binding affinity to ASM protein.

Binder | Kd [nM] | koff [s⁻¹] | kon [M⁻¹ s⁻¹]
#9104a-A1 (antibody, human IgG4 S228P, lambda, V domains shown, VH of #9104v-H10 with VL of #9104v-L20; full-length IgG, lambda) VH: EVQLLESGGGLVQPGGSLRLSCAASGFTFSNYYMSWVRQAPGKGLEWVSGIYYGNGIPYYADSVKDRFTISRDNSKNTLYLQMNSLRAEDTAVYYCARDTPGFDYWGQGTLVTVSS VL: QSVLTQPPSASGTPGQRVTISCTGSSSNIGNNAVNWYQQLPGTAPKLLIYYDMFRPGGVPDRFSGSKSGTSASLAISGLRSEDEADYYCGAWDYSLSAYVFGGGTKLTVLG | 0.0518 | 1.14e-05 | 220000
#9104a-A2 (antibody, human IgG4 S228P, lambda, V domains shown, VH of #9104v-H11 with VL of #9104v-L20; full-length IgG, lambda) VH: EVQLLESGGGLVQPGGSLRLSCAASGFTFSNYYMSWVRQAPGKGLEWVSGIYYGSGIPYYADSVKERFTISRDNSKNTLYLQMNSLRAEDTAVYYCARDTPGFDYWGQGTLVTVSS VL: QSVLTQPPSASGTPGQRVTISCTGSSSNIGNNAVNWYQQLPGTAPKLLIYYDMFRPGGVPDRFSGSKSGTSASLAISGLRSEDEADYYCGAWDYSLSAYVFGGGTKLTVLG | 0.0961 | 1.98e-05 | 206000
#9104a-A3 (antibody, human IgG4 S228P, lambda, V domains shown, VH of #9104v-H13 with VL of #9104v-L20; full-length IgG, lambda) VH: EVQLLESGGGLVQPGGSLRLSCAASGFTFSNYYMSWVRQAPGKGLEWVSGIYYGSGIPYYANSVKGRFTISRDNSKNTLYLQMNSLRAEDTAVYYCARDTPGFDYWGQGTLVTVSS VL: QSVLTQPPSASGTPGQRVTISCTGSSSNIGNNAVNWYQQLPGTAPKLLIYYDMFRPGGVPDRFSGSKSGTSASLAISGLRSEDEADYYCGAWDYSLSAYVFGGGTKLTVLG | 0.0277 | 5.48e-06 | 198000
#9104a-A4 (antibody, human IgG4 S228P, lambda, V domains shown, VH of #9104v-H17 with VL of #9104v-L20; full-length IgG, lambda) VH: EVQLLESGGGLVQPGGSLRLSCAASGFTFSNYYMSWVRRAPGKGLEWVSGIYYGSGTPYYAASVKGRFTISRDNSKNTLYLQMNSLRAEDTAVYYCARDTPGFDYWGQGTLVTVSS VL: QSVLTQPPSASGTPGQRVTISCTGSSSNIGNNAVNWYQQLPGTAPKLLIYYDMFRPGGVPDRFSGSKSGTSASLAISGLRSEDEADYYCGAWDYSLSAYVFGGGTKLTVLG | 0.162 | 3.54e-05 | 219000
#9104a-A5 (antibody, human IgG4 S228P, lambda, V domains shown, VH of #9104v-H19 with VL of #9104v-L20; full-length IgG, lambda) VH: EVQLLESGGGLVQPGGSLRLSCAASGFTFSNYYMSWVRQAPGKGLEWVSGIYYGSGVPYYADSVKGRFTISRDNSKNTLYLQMNSLRAEDTAVYYCARDTPGFDYWGQGTLVTVSS VL: QSVLTQPPSASGTPGQRVTISCTGSSSNIGNNAVNWYQQLPGTAPKLLIYYDMFRPGGVPDRFSGSKSGTSASLAISGLRSEDEADYYCGAWDYSLSAYVFGGGTKLTVLG | 0.16 | 3.93e-05 | 246000
#9104a-A6 (antibody, human IgG4 S228P, lambda, V domains shown, VH of #9104v-H27 with VL of #9104v-L20; full-length IgG, lambda) VH: EVQLLESGGGLVQPGGSLRLSCAASGFTFSNYYMSWVRQAPGKGLEWVSGTYYDSGYVYYADSVKGRFTISRDNSKNTLYLQMNSLRAEDTAVYYCARDTPGFDYWGQGTLVTVSS VL: QSVLTQPPSASGTPGQRVTISCTGSSSNIGNNAVNWYQQLPGTAPKLLIYYDMFRPGGVPDRFSGSKSGTSASLAISGLRSEDEADYYCGAWDYSLSAYVFGGGTKLTVLG | 0.768 | 6.96e-05 | 90600
#9104a-A7 (antibody, human IgG4 S228P, lambda, V domains shown, VH of #9104v-H31 with VL of #9104v-L20; full-length IgG, lambda) VH: EVQLLESGGGLVQPGGSLRLSCAASGFTFSNYYMSWVRQAPGKGLEWVSGVYYGSGTPYYADSVKGRFTISRDNSKNTLYLQMNSLRAEDTAVYYCARDTPGFDYWGQGTLVTVSS VL: QSVLTQPPSASGTPGQRVTISCTGSSSNIGNNAVNWYQQLPGTAPKLLIYYDMFRPGGVPDRFSGSKSGTSASLAISGLRSEDEADYYCGAWDYSLSAYVFGGGTKLTVLG | 0.0354 | 8.13e-06 | 230000
#9104a-A8 (antibody, human IgG4 S228P, lambda, V domains shown, VH of #9104v-H33 with VL of #9104v-L20; full-length IgG, lambda) VH: EVQLLESGGGLVQPGGSLRLSCAASGFTFSNYYMSWVRQAPGKGLEWVSGVYYPSGNPYYADSVKGRFTISRDNSKNTLYLQMNSLRAEDTAVYYCARDTPGFDYWGQGTLVTVSS VL: QSVLTQPPSASGTPGQRVTISCTGSSSNIGNNAVNWYQQLPGTAPKLLIYYDMFRPGGVPDRFSGSKSGTSASLAISGLRSEDEADYYCGAWDYSLSAYVFGGGTKLTVLG | 0.237 | 4.51e-05 | 191000
#9104a-B1 (antibody, human IgG4 S228P, lambda, V domains shown, VH of #9104v-H10 with VL of #9104v-L21; full-length IgG, lambda) VH: EVQLLESGGGLVQPGGSLRLSCAASGFTFSNYYMSWVRQAPGKGLEWVSGIYYGNGIPYYADSVKDRFTISRDNSKNTLYLQMNSLRAEDTAVYYCARDTPGFDYWGQGTLVTVSS VL: QSVLTQPPSASGTPGQRVTISCTGSSSNIGNNAVNWYQQLPGTAPKLLIYYDMFRPNGVPDRFSGSKSGTSASLAISGLRSEDEADYYCGAWDYSLSAYVFGGGTKLTVLG | 0.137 | 3.45e-05 | 253000
#9104a-B2 (antibody, human IgG4 S228P, lambda, V domains shown, VH of #9104v-H11 with VL of #9104v-L21; full-length IgG, lambda) VH: EVQLLESGGGLVQPGGSLRLSCAASGFTFSNYYMSWVRQAPGKGLEWVSGIYYGSGIPYYADSVKERFTISRDNSKNTLYLQMNSLRAEDTAVYYCARDTPGFDYWGQGTLVTVSS VL: QSVLTQPPSASGTPGQRVTISCTGSSSNIGNNAVNWYQQLPGTAPKLLIYYDMFRPNGVPDRFSGSKSGTSASLAISGLRSEDEADYYCGAWDYSLSAYVFGGGTKLTVLG | 0.114 | 3.03e-05 | 266000
#9104a-B3 (antibody, human IgG4 S228P, lambda, V domains shown, VH of #9104v-H13 with VL of #9104v-L21; full-length IgG, lambda) VH: EVQLLESGGGLVQPGGSLRLSCAASGFTFSNYYMSWVRQAPGKGLEWVSGIYYGSGIPYYANSVKGRFTISRDNSKNTLYLQMNSLRAEDTAVYYCARDTPGFDYWGQGTLVTVSS VL: QSVLTQPPSASGTPGQRVTISCTGSSSNIGNNAVNWYQQLPGTAPKLLIYYDMFRPNGVPDRFSGSKSGTSASLAISGLRSEDEADYYCGAWDYSLSAYVFGGGTKLTVLG | 0.0351 | 8.23e-06 | 234000
#9104a-B4 (antibody, human IgG4 S228P, lambda, V domains shown, VH of #9104v-H17 with VL of #9104v-L21; full-length IgG, lambda) VH: EVQLLESGGGLVQPGGSLRLSCAASGFTFSNYYMSWVRRAPGKGLEWVSGIYYGSGTPYYAASVKGRFTISRDNSKNTLYLQMNSLRAEDTAVYYCARDTPGFDYWGQGTLVTVSS VL: QSVLTQPPSASGTPGQRVTISCTGSSSNIGNNAVNWYQQLPGTAPKLLIYYDMFRPNGVPDRFSGSKSGTSASLAISGLRSEDEADYYCGAWDYSLSAYVFGGGTKLTVLG | 0.153 | 3.74e-05 | 245000
#9104a-B5 (antibody, human IgG4 S228P, lambda, V domains shown, VH of #9104v-H19 with VL of #9104v-L21; full-length IgG, lambda) VH: EVQLLESGGGLVQPGGSLRLSCAASGFTFSNYYMSWVRQAPGKGLEWVSGIYYGSGVPYYADSVKGRFTISRDNSKNTLYLQMNSLRAEDTAVYYCARDTPGFDYWGQGTLVTVSS VL: QSVLTQPPSASGTPGQRVTISCTGSSSNIGNNAVNWYQQLPGTAPKLLIYYDMFRPNGVPDRFSGSKSGTSASLAISGLRSEDEADYYCGAWDYSLSAYVFGGGTKLTVLG | < 0.001 | < 1e-07 | 243000
#9104a-B6 (antibody, human IgG4 S228P, lambda, V domains shown, VH of #9104v-H27 with VL of #9104v-L21; full-length IgG, lambda) VH: EVQLLESGGGLVQPGGSLRLSCAASGFTFSNYYMSWVRQAPGKGLEWVSGTYYDSGYVYYADSVKGRFTISRDNSKNTLYLQMNSLRAEDTAVYYCARDTPGFDYWGQGTLVTVSS VL: QSVLTQPPSASGTPGQRVTISCTGSSSNIGNNAVNWYQQLPGTAPKLLIYYDMFRPNGVPDRFSGSKSGTSASLAISGLRSEDEADYYCGAWDYSLSAYVFGGGTKLTVLG | 1.14 | 9.41e-05 | 82900
#9104a-B7 (antibody, human IgG4 S228P, lambda, V domains shown, VH of #9104v-H31 with VL of #9104v-L21; full-length IgG, lambda) VH: EVQLLESGGGLVQPGGSLRLSCAASGFTFSNYYMSWVRQAPGKGLEWVSGVYYGSGTPYYADSVKGRFTISRDNSKNTLYLQMNSLRAEDTAVYYCARDTPGFDYWGQGTLVTVSS VL: QSVLTQPPSASGTPGQRVTISCTGSSSNIGNNAVNWYQQLPGTAPKLLIYYDMFRPNGVPDRFSGSKSGTSASLAISGLRSEDEADYYCGAWDYSLSAYVFGGGTKLTVLG | 0.163 | 4.07e-05 | 250000
#9104a-B8 (antibody, human IgG4 S228P, lambda, V domains shown, VH of #9104v-H33 with VL of #9104v-L21; full-length IgG, lambda) VH: EVQLLESGGGLVQPGGSLRLSCAASGFTFSNYYMSWVRQAPGKGLEWVSGVYYPSGNPYYADSVKGRFTISRDNSKNTLYLQMNSLRAEDTAVYYCARDTPGFDYWGQGTLVTVSS VL: QSVLTQPPSASGTPGQRVTISCTGSSSNIGNNAVNWYQQLPGTAPKLLIYYDMFRPNGVPDRFSGSKSGTSASLAISGLRSEDEADYYCGAWDYSLSAYVFGGGTKLTVLG | 0.28 | 6.44e-05 | 230000
